Measurements as given in patent US10568950B1, “Peptides, combination of peptides and scaffolds for use in immunotherapeutic treatment of various cancers” (Immatics Biotechnologies GmbH, priority 2015, dated 2020).

Target: HLA-A*02 (Homo sapiens, UniProt P04439, D140Y/D185E/D98H/E176V/E277Q/G131W/G231S/I119V/I121R/I166T/I218V/N151K/N90K/P208A/P217A/Q86G/Q94H/R138H/R169H)
Assay: MHC binding assay: UV-ligand exchange, beta2m ELISA (peptide exchange yield)
Settings: binding to HLA-A*02, β2m ELISA
Source text: Candidate peptides for T cell based therapies according to the present invention were further tested for their MHC binding capacity (affinity). The individual peptide-MHC complexes were produced by UV-ligand exchange, where a UV-sensitive peptide is cleaved upon UV-irradiation, and exchanged with the peptide of interest as analyzed. Only peptide candidates that can effectively bind and stabilize the peptide-receptive MHC molecules prevent dissociation of the MHC complexes. To determine the yield of the exchange reaction, an ELISA was performed based on the detection of the light chain (β2m) of stabilized MHC complexes. The assay was performed as generally described in Rodenko et al. (Rodenko et al., 2006).
96 well MAXISorp plates (NUNC) were coated over night with 2 ug/ml streptavidin in PBS at room temperature, washed 4× and blocked for 1 h at 37° C. in 2% BSA containing blocking buffer. […] Peptide-MHC monomers of the UV-exchange reaction were diluted 100 fold in blocking buffer. Samples were incubated for 1 h at 37° C., washed four times, incubated with 2 ug/ml HRP conjugated anti-βm for 1 h at 37° C., washed again and detected with TMB solution that is stopped with […]. Absorption was measured at 450 nm. Candidate peptides that show a high exchange yield (preferably higher than 50%, most preferred higher than 75%) are generally preferred for a generation and production of antibodies or fragments thereof, and/or T cell receptors or fragments thereof, as they show sufficient avidity to the MHC molecules and prevent dissociation of the MHC complexes.

Substance	Peptide exchange (MHC class I binding score, peptide exchange yield)
1 (PLWGKVFYL; listed as Homo sapiens) [compound 1]	++ (20%-49% = ++)
3 (TLLGKQVTL; listed as Homo sapiens) [compound 3]	+++ (50%-75% = +++)
4 (ELAEIVFKV; listed as Homo sapiens) [compound 4]	+++ (50%-75% = +++)
5 (SLFGQEVYC; listed as Homo sapiens) [compound 5]	+++ (50%-75% = +++)
6 (FLDPAQRDL; listed as Homo sapiens) [compound 6]	+++ (50%-75% = +++)
10 (KTLDVFNIIL; listed as Homo sapiens) [compound 10]	++ (20%-49% = ++)
11 (GVLKVFLENV; listed as Homo sapiens) [compound 11]	++ (20%-49% = ++)
12 (GLIYEETRGV; listed as Homo sapiens) [compound 12]	++ (20%-49% = ++)
13 (VLRDNIQGI; listed as Homo sapiens) [compound 13]	+++ (50%-75% = +++)
14 (LLDHLSFINKI; listed as Homo sapiens) [compound 14]	++ (20%-49% = ++)
16 (HLYNNEEQV; listed as Homo sapiens) [compound 16]	++ (20%-49% = ++)
18 (YVLNEEDLQKV; listed as Homo sapiens) [compound 18]	+++ (50%-75% = +++)
19 (TLLPTVLTL; listed as Homo sapiens) [compound 19]	+++ (50%-75% = +++)
20 (ALDGHLYAI; listed as Homo sapiens) [compound 20]	+++ (50%-75% = +++)
21 (SLYHRVLLY; listed as Homo sapiens) [compound 21]	++++ (>= 75% = ++++)
22 (MLSDLTLQL; listed as Homo sapiens) [compound 22]	++++ (>= 75% = ++++)
23 (AQTVVVIKA; listed as Homo sapiens) [compound 23]	+ (<20% = +)
24 (FLWNGEDSAL; listed as Homo sapiens) [compound 24]	+++ (50%-75% = +++)
25 (IQADDFRTL; listed as Homo sapiens) [compound 25]	++ (20%-49% = ++)
26 (KVDGVVIQL; listed as Homo sapiens) [compound 26]	+++ (50%-75% = +++)
27 (KVFGDLDQV; listed as Homo sapiens) [compound 27]	+++ (50%-75% = +++)

Substance	Peptide exchange (MHC class I binding score, peptide exchange yield)
28 (TLYSMDLMKV; listed as Homo sapiens) [compound 28]	+++ (50%-75% = +++)
29 (TLCNKTFTA; listed as Homo sapiens) [compound 29]	+++ (50%-75% = +++)
31 (ALSDETKNNWEV; listed as Homo sapiens) [compound 31]	++++ (>= 75% = ++++)
32 (ILADEAFFSV; listed as Homo sapiens) [compound 32]	+++ (50%-75% = +++)
33 (LLLPLLPPLSPSLG; listed as Homo sapiens) [compound 33]	+++ (50%-75% = +++)
35 (YVLPKLYVKL; listed as Homo sapiens) [compound 35]	++ (20%-49% = ++)
36 (KLYGIEIEV; listed as Homo sapiens) [compound 36]	++++ (>= 75% = ++++)
37 (ALINDILGELVKL; listed as Homo sapiens) [compound 37]	+++ (50%-75% = +++)
38 (KMQEDLVTL; listed as Homo sapiens) [compound 38]	+++ (50%-75% = +++)
39 (ALMAVVSGL; listed as Homo sapiens) [compound 39]	+++ (50%-75% = +++)
40 (SLLALPQDLQA; listed as Homo sapiens) [compound 40]	+++ (50%-75% = +++)
41 (FVLPLVVTL; listed as Homo sapiens) [compound 41]	+++ (50%-75% = +++)
42 (VLSPFILTL; listed as Homo sapiens) [compound 42]	+++ (50%-75% = +++)
44 (GLLWQIIKV; listed as Homo sapiens) [compound 44]	++ (20%-49% = ++)
45 (VLGPTPELV; listed as Homo sapiens) [compound 45]	+++ (50%-75% = +++)
46 (SLAKHGIVAL; listed as Homo sapiens) [compound 46]	+++ (50%-75% = +++)
47 (GLYQAQVNL; listed as Homo sapiens) [compound 47]	+++ (50%-75% = +++)
48 (TLDHKPVTV; listed as Homo sapiens) [compound 48]	++ (20%-49% = ++)
49 (LLDESKLTL; listed as Homo sapiens) [compound 49]	+++ (50%-75% = +++)
50 (EYALLYHTL; listed as Homo sapiens) [compound 50]	++ (20%-49% = ++)
51 (LLLDGDFTL; listed as Homo sapiens) [compound 51]	+++ (50%-75% = +++)

Substance	Peptide exchange (MHC class I binding score, peptide exchange yield)
52 (ELLSSIFFL; listed as Homo sapiens) [compound 52]	+++ (50%-75% = +++)
53 (SLLSHVIVA; listed as Homo sapiens) [compound 53]	+++ (50%-75% = +++)
54 (FINPKGNWLL; listed as Homo sapiens) [compound 54]	+++ (50%-75% = +++)
55 (IASAIVNEL; listed as Homo sapiens) [compound 55]	++ (20%-49% = ++)
56 (KILDLTRVL; listed as Homo sapiens) [compound 56]	++ (20%-49% = ++)
57 (VLISSTVRL; listed as Homo sapiens) [compound 57]	++ (20%-49% = ++)
58 (ALDDSLTSL; listed as Homo sapiens) [compound 58]	++ (20%-49% = ++)
59 (ALTKILAEL; listed as Homo sapiens) [compound 59]	+++ (50%-75% = +++)
60 (FLIDTSASM; listed as Homo sapiens) [compound 60]	++ (20%-49% = ++)
61 (HLPDFVKQL; listed as Homo sapiens) [compound 61]	++ (20%-49% = ++)
62 (SLFNQEVQI; listed as Homo sapiens) [compound 62]	+++ (50%-75% = +++)
63 (TLSSERDFAL; listed as Homo sapiens) [compound 63]	+ (<20% = +)
64 (GLSSSSYEL; listed as Homo sapiens) [compound 64]	++ (20%-49% = ++)
65 (KLDGICWQV; listed as Homo sapiens) [compound 65]	+++ (50%-75% = +++)
66 (FITDFYTTV; listed as Homo sapiens) [compound 66]	+++ (50%-75% = +++)
67 (GVIETVTSL; listed as Homo sapiens) [compound 67]	++ (20%-49% = ++)
69 (GIYDGILHSI; listed as Homo sapiens) [compound 69]	+++ (50%-75% = +++)
70 (GLFSQHFNL; listed as Homo sapiens) [compound 70]	+++ (50%-75% = +++)
71 (GLITVDIAL; listed as Homo sapiens) [compound 71]	+++ (50%-75% = +++)
72 (GMIGFQVLL; listed as Homo sapiens) [compound 72]	+++ (50%-75% = +++)
74 (ILDETLENV; listed as Homo sapiens) [compound 74]	++ (20%-49% = ++)
